PMC7081424 (ACS Omega, 2020)
Square brackets hold non-standard residues; d marks the D form. Primed or numbered codes have the meaning given here. FITC′ = fluorescein isothiocyanate; pS = N[C@@H](COP(=O)(O)O)C(=O)O; βAla = NCCC(=O)O

B1: 14-3-3σ with truncated C-terminus ΔC232-248 (domain or fragment, human, UniProt P31947 1-231, looked up)
chain: MERASLIQKAKLAEQAERYEDMAAFMKGAVEKGEELSCEERNLLSVAYKNVVGGQRAAWRVLSSIEQKSNEEGSEEKGPEVREYREKVETELQGVCDTVLGLLDSHLIKEAGDAESRVFYLKMKGDYYRYLAEVATGDDKKRIIDSARSAYQEAMDISKKEMPPTNPIRLGLALNFSVFHYEIANSPEEAISLAKTTFDEAMADLHTLSEDSYKDSTLIMQLLRDNLTLWT

Experiments:
[1] = target: FITC-labeled IκBαpS63 peptide (phosphorylated 14-3-3 binding motif of IκBα) (human) (UniProt P25963); assay: fluorescence polarisation
[2] = target: T1, W59F and W228F double mutation of 14-3-3ζ (human, UniProt P63104 1-245, W59F | W228F); assay: fluorescence polarisation
T1 sequence (looked up): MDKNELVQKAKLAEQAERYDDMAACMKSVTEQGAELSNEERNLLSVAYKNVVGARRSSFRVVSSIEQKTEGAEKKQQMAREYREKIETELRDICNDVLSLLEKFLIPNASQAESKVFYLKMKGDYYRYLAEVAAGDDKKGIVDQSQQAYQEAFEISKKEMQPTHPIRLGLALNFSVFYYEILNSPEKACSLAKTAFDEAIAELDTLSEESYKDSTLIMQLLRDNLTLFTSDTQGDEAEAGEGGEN

[3] = target: B1; assay: crystal structure
crystal structure = target: the molecule itself; assay: crystal structure

With “14-3-3ζ (from UniProt P63104 1-245) (natural protein)” the Kd [1] was 380 µM.

With {FITC′-βAla}-QEVPRG[pS]EPWKQQ-NH2 (peptide, UniProt P25963 57-69, looked up) [FITC-labeled IκBαpS63 peptide (phosphorylated 14-3-3 binding motif of IκBα)] the Kd [2] was roughly 415 µM.

Ac-QEVPRG[pS]EPWKQQ-NH2 (peptide, UniProt P25963 57-69, looked up) [unlabeled (N-terminally acetylated) IκBαpS63 peptide]: binds [3].

B1: binds (crystal structure).
